The text below walks through data of paper PMC10692205, “Pyroptosis inhibiting nanobodies block Gasdermin D pore formation” (Nature Communications, 2023).

The target in assay [1] is T1, human wild-type, full length Gasdermin D (GSDMD 1-484), chemically biotinylated (Homo sapiens (Human)., UniProt P57764, chemically biotinylated (ChromaLink Biotin), approximately 2 biotins per molecule).
T1 construct: human Gasdermin D (GSDMD), wild type, full length, residues 1-484; also called human GSDMD wt, f.l; hGSDMD; source: E. coli Rosetta (DE3), purified (Ni-NTA, SUMO cleavage by ULP1, second Ni-NTA, SEC S200); chemically biotinylated (ChromaLink Biotin Labeling kit); not shown: His6-SUMO, N-terminal, cleaved
The assay can be described thus: SPR; Biacore 8K; chemically biotinylated full length GSDMD captured on Series S Sensor Chip CAP; nanobodies injected as analytes, multi-cycle kinetics (VHH-1, -2, -3, -5: 0.5-32 nM; VHH-4, -6: 64-4096 nM); 25 °C; 20 mM HEPES pH 8.0, 200 mM NaCl, 5 mM DTT, 0.05% Tween20; flow 30 µl/min; association 120 s, dissociation 300 s; 1:1 binding model. Particulars: both partners purified.

Assay [2] has as its target T2, human wild-type, full length Gasdermin D (GSDMD) 1-484 (Homo sapiens (Human)., UniProt P57764). Kind of assay: cell-based or functional assay.
In assay [3] the target is T3, GSDMD_(Δ184-194/Δ247-272) (human, UniProt P57764, Δ184-194 | Δ247-272).
T3 construct: human Gasdermin D 1-484 with residues 184-194 (in the NTD) and 247-272 (linker between the domains) deleted; also called GSDMD crystallization construct; source: E. coli Rosetta (DE3), purified (Ni-NTA, ULP1 cleavage, second Ni-NTA, SEC); not shown: His6, N-terminal, cleaved; SUMO, N-terminal, cleaved
Kind of assay: SEC-MALS; GSDMD_(Δ184-194/Δ247-272) mixed with VHH GSDMD-2, VHH GSDMD-6 or both at equimolar concentrations (189 µM); Superose 6 10/300 GL in GSDMD-SEC buffer. Particulars: both partners purified. In general terms: In gel filtration, larger molecules generally elute earlier.

The target in assay [4] is T4, chemically biotinylated full length human Gasdermin D (GSDMD) (human, UniProt P57764 1-484, chemically biotinylated (ChromaLink Biotin), approximately 2 biotins per molecule; sites not stated).
T4 chain: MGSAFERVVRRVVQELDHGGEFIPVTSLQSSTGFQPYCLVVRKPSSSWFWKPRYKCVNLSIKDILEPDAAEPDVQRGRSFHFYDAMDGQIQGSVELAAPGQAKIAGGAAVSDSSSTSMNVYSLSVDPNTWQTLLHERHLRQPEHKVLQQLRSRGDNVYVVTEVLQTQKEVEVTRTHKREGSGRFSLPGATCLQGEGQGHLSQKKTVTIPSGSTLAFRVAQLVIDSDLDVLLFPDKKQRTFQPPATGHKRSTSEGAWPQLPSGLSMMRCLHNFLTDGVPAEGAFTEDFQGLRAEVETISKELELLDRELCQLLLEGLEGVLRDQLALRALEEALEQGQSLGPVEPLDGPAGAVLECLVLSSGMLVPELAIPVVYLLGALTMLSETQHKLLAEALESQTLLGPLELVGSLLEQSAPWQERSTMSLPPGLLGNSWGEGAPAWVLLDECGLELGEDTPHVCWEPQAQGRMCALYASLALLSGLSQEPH
Kind of assay: SPR. (SPR reads the build-up and loss of mass on a sensor chip optically.)

Assay [5] concerns the target T2, human wild-type, full length Gasdermin …. Kind of assay: nanoDSF thermal shift; nanobodies titrated to GSDMD (5 µM) in increasing concentrations; heated 20 to 90 °C at 1.5 °C/min; fluorescence at 330 and 350 nm. The note with it: both partners purified. Background: In DSF a fluorescence change marks the thermal transition of the protein.
In assay [6] the target is human wild-type, full length Gasdermin D (GSDMD 1-484), chemically biotinylated (human) (UniProt P57764). Kind of assay: SPR; Biacore 8K; chemically biotinylated full length GSDMD captured on Series S Sensor Chip CAP; nanobodies injected as analytes, multi-cycle kinetics (VHH-1, -2, -3, -5: 0.5-32 nM; VHH-4, -6: 64-4096 nM); 25 °C; 20 mM HEPES pH 8.0, 200 mM NaCl, 5 mM DTT, 0.05% Tween20; flow 30 µl/min; association 120 s, dissociation 300 s; 1:1 binding model.

Assay [7] concerns the target T5, chemically biotinylated full length human Gasdermin D (GSDMD) (Homo sapiens (Human)., UniProt P57764, chemically biotinylated (ChromaLink Biotin), approximately 2 biotins per molecule; sites not stated).
T5 construct: human Gasdermin D, wild-type, full length, residues 1-484; also called chemically biotinylated GSDMD; not shown: His6, N-terminal, cleaved; SUMO, N-terminal, cleaved
The assay can be described thus: SPR; chemically biotinylated GSDMD captured on a Series S Sensor Chip CAP (biotin capture kit); nanobodies injected as analytes, multi-cycle kinetics, 120 s association, 300 s dissociation, 1:1 binding model; 25 °C; 20 mM HEPES pH 8.0, 200 mM NaCl, 5 mM DTT, 0.05% Tween20. Particulars: both partners purified.

B1: VHH_(GSDMD-6) (VHH)
VHH: QVQLVETGGGLVQPGGSLRLSCTASGFIFSANQMNWVRQAPGKGLEWLSGISTRGDTTSYADSVKGRFTISRDNAKNTLYLQMNSLQPDDTAVYFCARVCIRGPEPKLRCDDWGQGTQVTVSS
notes: also called VHH-6; source: E. coli WK6, periplasmic expression (pHEN6), purified (Ni-NTA, SEC S75)
What is called Kd is the concentration at which binding is half-saturated. For orientation: koff means a measure of how fast the partners let go of each other. Lower therefore signals a long-lived complex. What is called kon is the second-order rate constant of association. Higher therefore signals faster complex formation. With B1, in assay [1], the Kd turned out to be 143 nM, the koff turned out to be 0.0201 s⁻¹ and the on-rate constant (kon) was 141000 M⁻¹ s⁻¹.

B2: VHH_(GSDMD-6) (VHH)
VHH: QVQLVETGGGLVQPGGSLRLSCTASGFIFSANQMNWVRQAPGKGLEWLSGISTRGDTTSYADSVKGRFTISRDNAKNTLYLQMNSLQPDDTAVYFCARVCIRGPEPKLRCDDWGQGTQVTVSS
notes: CDR3 of 15 residues with an additional disulfide C100-C110; also called VHH_(GSDMD-6)-HA-His; source: E. coli WK6, periplasmic expression (pHEN6), purified (Ni-NTA, gel filtration); not shown: HA, C-terminal, kept; His tag, C-terminal, kept
What is called stoichiometry N is a count of units in the complex or per binding partner. Regarding B2, the “IC50 of calcein release through GSDMD pores in the liposome leakage assay (nanobody 10 nM to 10 µM, 0.5 µM full length GSDMD, caspase-4, 180 min); what is blocked: formation of functional GSDMD pores” value in assay [2] is 1300 nM. The “stoichiometry N” value in assay [3] turned out to be 1.

B3: VHH_(GSDMD-4) (VHH)
VHH: QVQLVESGGGLVQPGGSLRLSCAASGFTLDRHAIAWFRQAPGLEREGVVCTSSSGAITNTADSVKGRFTISRDDAKNTVYLQMNSLKPEDTAIYYCAVRELWTVQPICEPRPRAYAYWGQGTQVTVSS
notes: source: E. coli WK6, periplasmic expression (pHEN6), purified (Ni-NTA, gel filtration)
For the molecule B3, in assay [4], the Kd was 559 nM. Also, in assay [5], the binding result was “binds”. Moreover, in assay [6], the koff was 0.00161 s⁻¹ and the kon is 2890 M⁻¹ s⁻¹.

B4: VHH_(GSDMD-1) (VHH)
VHH: QVQLVESGGALVQPGGSLRLSCSASGFTFSKYLMSWYRQAPGKERELVATITTAGGNTNYADSVKGRFTISRDNAKNTVYLQMNSLKPEDTAVYYCKASGGTIRTVNETYWGQGTQVTVSS
notes: also called VHH-1; source: E. coli WK6, periplasmic expression (pHEN6), purified (Ni-NTA, SEC S75)
In assay [1], B4 came in with a Kd of 0.305 nM, a koff of 0.00198 s⁻¹ and a kon of 6.48e+06 M⁻¹ s⁻¹.

B5: VHH_(GSDMD-1) (VHH)
VHH: QVQLVESGGALVQPGGSLRLSCSASGFTFSKYLMSWYRQAPGKERELVATITTAGGNTNYADSVKGRFTISRDNAKNTVYLQMNSLKPEDTAVYYCKASGGTIRTVNETYWGQGTQVTVSS
notes: raised by immunization of an alpaca with full-length recombinant human GSDMD; also called VHH_(GSDMD-1)-LPETG-His; source: E. coli WK6, periplasmic expression (pHEN6), purified (Ni-NTA, gel filtration); not shown: LPETG, C-terminal, kept; His tag, C-terminal, kept
As to B5, in assay [2], the “IC50 of calcein release through GSDMD pores in the liposome leakage assay (nanobody 10 nM to 10 µM, 0.5 µM full length GSDMD, caspase-4, 180 min); what is blocked: formation of functional GSDMD pores” value is 220 nM. This molecule showed a Kd in assay [7] of 0.31 nM.

B6: VHH_(GSDMD-3) (VHH)
VHH: QVQLVETGGGLVQPGGSLRLSCAASGFTLDIYNMGWFRQAPGKEREGVSCISSRYGTSTYYADSVKGRFTISRDNAKNTVYLQMNNLKPEDTAVYYCATVSWRFTTNQDVCLTPSVSGYWGQGTQVTVSS
notes: also called VHH-3; source: E. coli WK6, periplasmic expression (pHEN6), purified (Ni-NTA, SEC S75)
As to B6, in assay [1], the Kd stood at 0.551 nM, the koff turned out to be 0.00154 s⁻¹ and the association rate constant (kon) was determined as 2.8e+06 M⁻¹ s⁻¹.

B7: VHH_(GSDMD-3) (VHH)
VHH: QVQLVETGGGLVQPGGSLRLSCAASGFTLDIYNMGWFRQAPGKEREGVSCISSRYGTSTYYADSVKGRFTISRDNAKNTVYLQMNNLKPEDTAVYYCATVSWRFTTNQDVCLTPSVSGYWGQGTQVTVSS
notes: as for B3
Turning to B7, the dissociation constant (Kd) in assay [7] amounted to 0.55 nM.

B8: VHH_(GSDMD-2) (VHH)
VHH: QVQLVESGGGLVQPGGSLRLSCVDSRSWINVYGANWYRQAPGKERELVAALTSGGTTNYADSVKGRFTISRDNAKNTVYLQMRDLKPEDTAVYYCNLERYTGSSVYPWGQGTQVTVSS
notes: also called VHH-2; source: E. coli WK6, periplasmic expression (pHEN6), purified (Ni-NTA, SEC S75)
Consider B8, for which, in assay [1], the dissociation constant Kd turned out to be 0.637 nM, the off-rate constant (koff) was found to be 0.000951 s⁻¹ and the kon was 1.49e+06 M⁻¹ s⁻¹.

B9: VHH_(GSDMD-2) (VHH)
VHH: QVQLVESGGGLVQPGGSLRLSCVDSRSWINVYGANWYRQAPGKERELVAALTSGGTTNYADSVKGRFTISRDNAKNTVYLQMRDLKPEDTAVYYCNLERYTGSSVYPWGQGTQVTVSS
notes: CDR1, -2, -3 of 10, 9 and 12 residues; disulfide C22-C95; also called VHH_(GSDMD-2)-LPETG-His; source: E. coli WK6, periplasmic expression (pHEN6), purified (Ni-NTA, gel filtration); not shown: LPETG, C-terminal, kept; His tag, C-terminal, kept
For B9, the “IC50 of calcein release through GSDMD pores in the liposome leakage assay (nanobody 10 nM to 10 µM, 0.5 µM full length GSDMD, caspase-4, 180 min); what is blocked: formation of functional GSDMD pores” value in assay [2] is 650 nM. In addition, the “stoichiometry N” value in assay [3] was 1. This molecule also had a Kd in assay [7] of 0.64 nM.

B10: VHH_(GSDMD-5) (VHH)
VHH: QVQLVETGGGLVQPGGSLRLSCAASGFVFSINPMNWYRQAPGKERELVAYISMRGSTTNYADSVKGRFIISRDNAKNTLYLQMNSLKPEDTAVYYCNAPSRSVWGQGTQVTVSS
notes: also called VHH-5; source: E. coli WK6, periplasmic expression (pHEN6), purified (Ni-NTA, SEC S75)
B10: in assay [1], binding was put at a Kd of 0.494 nM, the koff was 0.00149 s⁻¹ and the on-rate (kon) came out at 3.02e+06 M⁻¹ s⁻¹.

B11: VHH_(GSDMD-5) (VHH)
VHH: QVQLVETGGGLVQPGGSLRLSCAASGFVFSINPMNWYRQAPGKERELVAYISMRGSTTNYADSVKGRFIISRDNAKNTLYLQMNSLKPEDTAVYYCNAPSRSVWGQGTQVTVSS
notes: as for B3
As for B11, binding in assay [7] was characterised by a dissociation constant (Kd) of 0.49 nM.
